Assay results from publication PMC4207752 (2014).

Molecular target: F-actin (skeletal muscle) (Oryctolagus cuniculus, UniProt P68135)
Experiment: co-sedimentation assay

B1: dystrophin N-ABD K18N 1-246 (protein)
chain: MLWWEEVEDCYEREDVQNKTFTKWVNAQFSKFGKQHIENLFSDLQDGRRLLDLLEGLTGQKLPKEKGSTRVHALNNVNKALRVLQNNNVDLVNIGSTDIVDGNHKLTLGLIWNIILHWQVKNVMKNIMAGLQQTNSEKILLSWVRQSTRNYPQVNVINFTTSWSDGLALNALIHSHRPDLFDWNSVVCQQSATQRLEHAFNIARYQLGIEKLLDPEDVDTTYPDKKSILMYITSLFQVLPQQVSIE
Question: Which Kd does the source give for B1 here?
Answer: Its Kd is ~45 µM.
